According to patent US20250177548A1, “FUSOGENIC PEPTIDE COMPOSITIONS AND METHODS OF CARGO DELIVERY” (CLEMSON UNIVERSITY, priority 2022, published 2025):
Non-standard residues stand in square brackets, D forms with d. Primed or numbered codes have the meaning given here. No end group written: not given here. pG″ = pyro form of the N-terminal glycine (pyroglycine); pG = not defined here

T1: luteinizing hormone releasing hormone (LHRH) receptor (UniProt P30968 1-328, limits assumed)
T1 sequence (looked up): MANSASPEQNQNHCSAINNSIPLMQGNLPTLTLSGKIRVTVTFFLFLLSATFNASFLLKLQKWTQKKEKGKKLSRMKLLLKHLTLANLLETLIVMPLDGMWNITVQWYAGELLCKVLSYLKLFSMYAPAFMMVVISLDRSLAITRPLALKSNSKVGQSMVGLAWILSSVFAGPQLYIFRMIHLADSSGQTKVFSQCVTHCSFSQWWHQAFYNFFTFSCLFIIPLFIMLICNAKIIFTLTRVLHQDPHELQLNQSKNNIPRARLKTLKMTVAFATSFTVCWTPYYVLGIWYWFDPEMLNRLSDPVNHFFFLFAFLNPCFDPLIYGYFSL


Tests used:
[1] = gel assay of siRNA protection from degradation in 50% serum; type: in vitro ADME; conditions: 50% FBS, 1 hour, several N:P ratios
Method: (§1) Gel Shift Assays. DIVA3, DIV3H, and DIV3W (all three denoted as DIV3 (X)) peptides suspended in RNase-free water (10 μM), were thawed, and kept on ice prior to complexation with 10 μM of negative control siGENOME non-targeting siRNA #5 (siNT, GE Healthcare Dharmacon, Lafayette, CO) in RNase-free water and incubated for 20 minutes at room temperature to allow the formation of DIV3 (X)-siNT complexes. Various molar ratios of peptides were complexed with siNT at increasing N:P molar ratios to determine the minimum molar ratio necessary to completely complex free siRNAs using an electrophoretic mobility shift assay. To determine the ability of each peptide variant to protect siRNAs from degradation, DIV3 (X)-siNT complexes or siNT alone was left untreated or incubated with either 50% v/v FBS or 5 μg/mL RNase A at 37° C. for one hour. Next, complexes were dissociated using 6% sodium dodecyl sulfate (SDS). Samples were added to a 2% agarose gel and run at 100 V. Gels were stained with ethidium bromide, destained with Milli-Q water, and imaged using a ChemiDoc XRS imager (Bio-Rad, Hercules, CA).
(§2) Characterization of Nanoparticle Size and Stability. To determine the minimum molar ratio necessary to completely complex free siRNAs, increasing N:P molar ratios of LHRH, DIV3W, and LHRH-DIV3W peptide were complexed with siRNAs and electrophoresed using a electrophoretic mobility shift assay. Molar ratios, shown as N:P, are representations of the molar amine peptide content in relation to 1 mole of phosphate group siRNA content. To determine the ability of the peptides to protect siRNAs from serum- or RNase-mediated degradation, LHRH and LHRH-DIV3W complexes were formed in RNase-free water with siNT at increasing N:P molar ratios and incubated at 37° C., 5% CO2, 50% v/v FBS, 5 μg/mL RNase A, or 50% v/v RNase free water for 1 hour. Peptide/siRNA complexes were dissociated using 6% sodium dodecyl sulfate (SDS) prior to electrophoresis in a 2% agarose gel run at 100 V. Gels were stained with ethidium bromide, washed with Milli-Q water, and imaged with a BioRad ChemiDoc XRS imager (BioRad, Hercules, CA).
(§3) Peptides VA-LD and GF-LD, comprising the cleavable linker VA or GLFG, respectively, between the LHRH target sequence and the DIV3W peptide, and non targeting siRNA were electrostatically complexed at increasing N:P ratios then subjected to agarose gel electrophoresis to determine optimal siRNA binding for each peptide. […] Peptide-siRNA nanocomplexes at increasing N:P ratios for peptides for VA-LD (FIG. 30A) and GF-LD (FIG. 30C) were incubated in either Rnase A enzyme or in 50% fetal bovine serum (FBS) for 1 h, dissociated using SDS then subjected to gel electrophoresis to visualize siRNA bands. Gels showing increasing N:P ratios of peptide:siRNA for VA-LD (FIG. 30B) and GF-LD (FIG. 30D) from 20:1 to 80:1 N:P; white bands are indicative of intact siRNA

[2] = dynamic light scattering, size and zeta potential of peptide/siRNA complexes; type: physicochemical; conditions: for zeta potential: DIV3 (X) peptide/siRNA complexes
Method: Dynamic Light Scattering and Transmission Electron Microscopy. DIV3 (X)-siNT complexes were prepared at 2 mg/mL in RNase-free water. Hydrodynamic size and surface charge of the peptide/siRNA complexes were determined using a Nano ZS Zetasizer (Malvern Pananalytical, Malvern, UK). All data were recorded using Malvern's Zetasizer software.
To determine nanoparticle size and zeta potential, peptides resuspended in RNase-free water (10 μM) were thawed and kept on ice prior to complexation with 10 μM of siNT in RNase-free water and incubated for 20 minutes at room temperature to form DIV3W-siNT and LHRH-DIV3W-siNT complexes. Peptide complexes were prepared at 2 mg/mL in RNase-free water. Hydrodynamic size and surface charge analysis was conducted using a Malvern Nano ZS Zetasizer (Malvern Panalytical, Malvern, UK). All data was analyzed using Malvern's Zetasizer software.

OVCAR3 cells [3] = assay: cellular uptake of labeled siRNA by flow cytometry; type: cell-based; conditions: for uptake efficiency: OVCAR3, siNT-DY547, 4 hours; for uptake efficiency, tandem vs LHRH peptide: FIG. 10E, 4 hr, cell line not stated
Method: Cellular Uptake. OVCAR3 and CAOV3 cells were prepared at 50,000 cells per well in a 24-well plate. […] Post-incubation, media was aspirated and cells were washed with 1× PBS. To counterstain the nuclei, SuperSignal NucBlue Hoechst stain (Thermo Fisher, Waltham, MA) was added to the cells for 30 minutes, followed by an additional 1×PBS wash. Subsequent imaging was performed using an EVOS FL Microscope (Thermo Fisher) at 10× magnification. For flow cytometric analysis, cells were detached, resuspended in 1× PBS, and analyzed using an Attune NXT Acoustic flow cytometer (Invitrogen, Carlsbad, CA) with the blue laser line and BL2 (574/26 nm) channel.
Cellular Uptake and Targeting Specificity. Observation of cell uptake was performed by seeding OVCAR3 and CAOV3 cells at a density of 50,000 cells per well in a 24-well plate. LHRH and LHRH-DIV3W peptides were complexed with […] as previously described and delivered to cells at 20:1 to 80:1 N:P ratios. Each cell line was incubated with tandem peptide complexes for both 4- and 24-hour treatment periods. Following incubation, cell media was removed, and cells were washed with 1× PBS prior to the addition of 500 μL of 1×PBS and SuperSignal NucBlue Hoescht 33342 nuclear stain (Thermo Fisher, Waltham, MA). Cellular imaging was completed using an EVOS FL Microscope (Thermo Fisher) at 10×, 20×, and 40× magnification. Flow cytometry was completed after cell imaging and cells were trypsinized, resuspended in 1×PBS, and analyzed with an Attune NXT Acoustic Flow Cytometer (Invitrogen) with the red laser line and RL2 […] channel.

CSNK2A1 mRNA = assay: qPCR of CSNK2A1 mRNA in OVCAR3 cells; type: cell-based; conditions: OVCAR3, 48 hours
Method: qRT-PCR. Cells were seeded at 50,000 cells per well and treated with siRNA targeting CSNK2A1 (siCSNK2A1 #s3638, Thermo Fisher Scientific) at increasing N:P ratios and incubated for a total of 48 hours in McCoys 5A/DMEM-10% FBS. Treated cells were washed with 1×PBS at 24 hours and fresh media was added. RNAisolation was completed using a Qiagen Mini-RNeasy Kit (Qiagen, Hilden, Germany) according to the manufacturer's protocol. RNA isolation quality and quantity were measured through the Gen5 protocol using a Take3 plate (BioTek). RNA was reverse-transcribed using the QuantiTect Reverse Transcription kit (Qiagen). Quantitative real-time PCR was completed with a QuantStudio 3 qPCR system (Applied Biosystems) using Applied Biosystems TaqMan FAST Master Mix (Thermo Fisher) and CSNK2A1 (ID #Hs00751002_s1) and 18S (ID #Hs99999901_s1) predesigned TaqMan probes, according to the manufacturer's protocol.
Gene and Protein Knockdown. Bioactivity of siRNAs was determined via qPCR and western blot analysis. OVCAR3 or CAOV3 cells were seeded at 50,000 cells per well as previously described and treated with siRNA targeting CSNK2A1 and siNT at N:P ratios 30:1, 40:1, 50:1, 60:1, and 70:1. LHRH-DIV3W peptide complexed with either siNT or siCSNK2A1 was incubated for a total of 48 hours in RPMI 1640/DMEM-10% FBS, with one media exchange occurring after the 24-hour timepoint. Treated cells were washed with 1×PBS at 24 hours and fresh media was added. RNA isolation was completed using a Qiagen Mini-RNeasy Kit (Qiagen, Hilden, Germany) according to the manufacturer's protocol. RNA isolation quality and quantity was measured through the Gen5 protocol using a Take3 plate (BioTek). RNA was reverse transcribed using the QuantiTect Reverse Transcription kit (Qiagen) according to the manufacturer's protocol. Quantitative real-time PCR was completed with a QuantStudio 3 qPCR system (Applied Biosystems, Waltham, MA) using Applied Biosystems TaqMan FAST Master Mix (Thermo Fisher) and CSNK2A1 (ID #Hs00751002_s1) and 18S (ID #Hs99999901_s1) predesigned TaqMan probes according to the manufacturer's protocol.

OVCAR3 cells [4] = system: OVCAR3 cells
Method: (§4) Cells were seeded at 10,000 cells per well with complete culture media in a 96-well plate and incubated overnight to allow the cells to attach. DIV3 (X) peptides were complexed with siNT at 40:1 to 80:1 N:P molar ratios. DIV3 (X)-siNT complexes were incubated with OVCAR3 or CAOV3 cells at a final concentration of 100 nM siRNA and 10% FBS for 24 hours. Media was then aspirated, cells were washed with 1× phosphate-buffered saline (PBS), and fresh media with 10% FBS was added to each well and incubated another 24 hours.
Viability was measured using an MTS Assay performed with CellTiter 96 AQueous One Solution Cell Proliferation Assay (Promega, Madison, WI). Assay reagent was added according to the manufacturer's protocol, and cells were incubated for 4 hours. Absorbance was read using a BioTek Synergy LX (BioTek, Winooksi, VT) plate reader at 490 nm. An MTS cell viability assay was also conducted as described for OVCAR3 and CAOV3 cells treated with DIV3W-siRNA complexes.
OVCAR3 or CAOV3 cells were seeded at 10,000 cells per well with complete culture media in a transparent 96-well plate and incubated overnight to allow the cells to attach. LHRH and LHRH-DIV3W peptides were delivered to cells without siRNA cargo. After 24 hours of incubation the media was exchanged and after another 24-hour incubation at 37° C. in 5% CO2, viability was measured using an MTS Assay performed with the CellTiter 96 AQueous One Solution Assay (Promega, Madison, WI). Assay reagent was added according to the manufacturer's protocol and cells were incubated for 4 hours. Absorbance was read using a BioTek Synergy LX (BioTek, Winooksi, VT) plate reader at 490 nm.

RNase A = assay: gel assay of siRNA protection from RNase A degradation; type: in vitro ADME; conditions: 1 hour, several N:P ratios
Method: as §1, §2, §3

ES2 ovarian cancer cells [5] = assay: cellular uptake of cy5 siRNA, microscopy and flow cytometry; type: cell-based, human; conditions: ES2, 4 hours, N:P ratios of 20:1-40:1
Method: Peptides, VA-LD and GF-LD, and cy5 labeled non targeting siRNA were electrostatically complexed at increasing N:P ratios and delivered to human ovarian ES2 cells for 4 hours.

ES2 ovarian cancer cells [6] = system: ES2 ovarian cancer cells
Method: VA-LD and GF-LD peptides were electrostatically complexed with and non targeting siRNA at increasing N:P ratios. Complexes were delivered to human ovarian ES2 cells for 48 hours and analyzed via MTS assay.

[7] = molecular target: T1, luteinizing hormone releasing hormone …; assay: cell-based or functional assay

Method for CAOV3 cells: as §4
Viability was measured using an MTS Assay performed with CellTiter 96 AQueous One Solution Cell Proliferation Assay (Promega, Madison, WI). Assay reagent was added according to the manufacturer's protocol, and cells were incubated for 4 hours. Absorbance was read using a BioTek Synergy LX (BioTek, Winooksi, VT) plate reader at 490 nm. […]
OVCAR3 or CAOV3 cells were seeded at 10,000 cells per well with complete culture media in a transparent 96-well plate and incubated overnight to allow the cells to attach. […] After 24 hours of incubation the media was exchanged and after another 24-hour incubation at 37° C. in 5% CO2, viability was measured using an MTS Assay performed with the CellTiter 96 AQueous One Solution Assay (Promega, Madison, WI). […] Absorbance was read using a BioTek Synergy LX (BioTek, Winooksi, VT) plate reader at 490 nm.

Molecule | intact siRNA after incubation in 50% serum [1] | zeta potential [2] [mV] | uptake efficiency (OVCAR3 cells [3]; 80:1) [%] | intact siRNA after incubation with RNase A (RNase A) | delivery of cy5 siRNA (ES2 ovarian cancer cells [5]) | biocompatibility of peptide/non-targeting siRNA complexes (ES2 ovarian cancer cells [6]) | also measured
WEADIVADIVHDIVADIVAGGG-(d) RRRRRRRRR (WEADIVADIVHDIVADIVAGGG[dR][dR][dR][dR][dR][dR][dR][dR][dR]) [DIV3H] | Reduction of intact siRNA signal | ~30 | 52.1 |  |  |  | hydrodynamic diameter ([2]; DIV3 (X) peptide/siRNA complex at 60:1 ratio): around 100 nm; CSNK2A1 mRNA silencing (knockdown) (CSNK2A1 mRNA; 80:1, vs siNT complex): 72%
pGHWSY-(d) L-LRP ([pG]HWSY[dL]LRP; reading uncertain) [LHRH, reference compound] |  |  |  |  |  |  | uptake efficiency, tandem vs LHRH peptide (OVCAR3 cells [3]; 40:1): 34.3%±0.56%; uptake efficiency, tandem vs LHRH peptide (OVCAR3 cells [3]; 60:1): 34.83%±2.75%; uptake efficiency, tandem vs LHRH peptide (OVCAR3 cells [3]; 80:1): 33.87%±1.63%; cytotoxicity of peptide alone (OVCAR3 cells [4]): biocompatibility; cytotoxicity of peptide alone (CAOV3 cells): biocompatibility
WEADIVADIVADIVAGGG-(d) RRRRRRRRR (WEADIVADIVADIVAGGG[dR][dR][dR][dR][dR][dR][dR][dR][dR]) [DIVA3] | Reduction of intact siRNA signal | ~20 | 63.6 | Reduction of intact siRNA signal |  |  | CSNK2A1 mRNA silencing (knockdown) (CSNK2A1 mRNA; 60:1, vs siNT complex): 47%
pGHWSY-LLRPGGGGFLGWEADIVADIVWDIVADIVAGGG-RRRRRRRRR ([pG]HWSY[dL]LRPGGGGFLGWEADIVADIVWDIVADIVAGGG[dR][dR][dR][dR][dR][dR][dR][dR][dR]; reading uncertain) [GF-LD] | protect siRNA in physiologically relevant environments |  |  | protect siRNA in physiologically relevant environments | deliver siRNA to ES2 ovarian cancer cells | biocompatible | 
pGHWSY-LLRPGGGVAWEADIVADIVWDIVADIVAGGG-RRRRRRRRR ([pG]HWSY[dL]LRPGGGVAWEADIVADIVWDIVADIVAGGG[dR][dR][dR][dR][dR][dR][dR][dR][dR]; reading uncertain) [VA-LD] | protect siRNA in physiologically relevant environments |  |  | protect siRNA in physiologically relevant environments | deliver siRNA to ES2 ovarian cancer cells | biocompatible | 
[pG″]HWSY[dL]LRPGGGGGWEADIVADIVWDIVADIVAGGG[dR][dR][dR][dR][dR][dR][dR][dR][dR] [LHRH-DIV3W tandem peptide] |  |  |  |  |  |  | cell viability (MTS), OVCAR3 cells, peptide without siRNA at the 20:1 ratio [7]: 110%
